Test [1] has as its target T1, recombinant mouse EphB3-Fc fusion protein (mouse, UniProt P54754 30-537, limits assumed).
T1 construct: also called mEphB3; not shown: Fc part, not described
T1 sequence (looked up): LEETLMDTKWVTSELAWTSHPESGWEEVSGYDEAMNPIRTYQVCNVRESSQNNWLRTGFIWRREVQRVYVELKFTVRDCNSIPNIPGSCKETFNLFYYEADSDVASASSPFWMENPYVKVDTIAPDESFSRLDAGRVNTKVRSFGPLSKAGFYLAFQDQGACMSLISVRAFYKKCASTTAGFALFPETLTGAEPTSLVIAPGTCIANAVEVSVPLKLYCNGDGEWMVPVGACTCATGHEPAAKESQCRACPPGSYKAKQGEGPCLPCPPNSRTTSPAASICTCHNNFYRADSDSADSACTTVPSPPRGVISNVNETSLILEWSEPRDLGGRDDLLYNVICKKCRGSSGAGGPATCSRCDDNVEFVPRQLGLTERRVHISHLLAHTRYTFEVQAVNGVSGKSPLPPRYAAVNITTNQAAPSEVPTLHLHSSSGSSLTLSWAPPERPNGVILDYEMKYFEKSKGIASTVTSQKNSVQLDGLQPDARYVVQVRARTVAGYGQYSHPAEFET
Briefly: ELISA on coated receptor. The protocol: (§1) A 96-well plate was coated with recombinant mEphB1, -2, -3, -4, -6, mEphA4 and hEphB4 in PBS o/n at 4° C. (5 μg/mL; 100 μL/well). The next day, the antigen was discarded and the plate blocked with 3% BSA/PBS (300 μl/well) for 2 hrs at room temperature (RT). Blocking solution was discarded and anti-EphB4 Fabs were added to the wells at a concentration of 20 μg/mL in 1% BSA/PBS and incubated for 1 hr at RT. Fabs were discarded and the plate was washed 3× with PBS. Anti-human F(ab′)₂—HRP was added at a concentration recommended by the manufacturer in 1% BSA/PBS and incubated for 1 hr at RT. The plate was washed 3× with PBS and 100 μL/well chemifluorescent substrate was added. After development, fluorescence was measured in a fluorescence reader.

In another test the target is T2, recombinant mouse EphB6 (mouse, UniProt O08644 33-591, limits assumed).
T2 construct: also called mEphB6
T2 sequence (looked up): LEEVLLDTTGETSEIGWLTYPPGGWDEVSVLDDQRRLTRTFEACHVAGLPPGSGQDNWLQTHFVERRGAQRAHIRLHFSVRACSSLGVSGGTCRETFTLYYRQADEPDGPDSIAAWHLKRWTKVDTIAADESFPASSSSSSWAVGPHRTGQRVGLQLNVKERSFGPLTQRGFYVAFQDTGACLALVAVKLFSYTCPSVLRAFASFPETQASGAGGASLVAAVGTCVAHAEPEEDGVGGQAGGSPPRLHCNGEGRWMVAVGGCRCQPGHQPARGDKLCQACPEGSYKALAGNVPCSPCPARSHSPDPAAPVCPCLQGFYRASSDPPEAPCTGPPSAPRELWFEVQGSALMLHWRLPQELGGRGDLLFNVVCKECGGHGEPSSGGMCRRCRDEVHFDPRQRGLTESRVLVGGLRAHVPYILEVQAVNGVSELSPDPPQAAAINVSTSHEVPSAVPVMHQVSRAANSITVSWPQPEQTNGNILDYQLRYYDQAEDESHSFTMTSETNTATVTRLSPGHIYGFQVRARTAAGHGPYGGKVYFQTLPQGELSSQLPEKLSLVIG
The test is described as follows: ELISA on coated receptor. How it is done: as §1

In another test the target is T3, rat EphB1 (rat, UniProt P09759 18-538, limits assumed).
T3 sequence (looked up): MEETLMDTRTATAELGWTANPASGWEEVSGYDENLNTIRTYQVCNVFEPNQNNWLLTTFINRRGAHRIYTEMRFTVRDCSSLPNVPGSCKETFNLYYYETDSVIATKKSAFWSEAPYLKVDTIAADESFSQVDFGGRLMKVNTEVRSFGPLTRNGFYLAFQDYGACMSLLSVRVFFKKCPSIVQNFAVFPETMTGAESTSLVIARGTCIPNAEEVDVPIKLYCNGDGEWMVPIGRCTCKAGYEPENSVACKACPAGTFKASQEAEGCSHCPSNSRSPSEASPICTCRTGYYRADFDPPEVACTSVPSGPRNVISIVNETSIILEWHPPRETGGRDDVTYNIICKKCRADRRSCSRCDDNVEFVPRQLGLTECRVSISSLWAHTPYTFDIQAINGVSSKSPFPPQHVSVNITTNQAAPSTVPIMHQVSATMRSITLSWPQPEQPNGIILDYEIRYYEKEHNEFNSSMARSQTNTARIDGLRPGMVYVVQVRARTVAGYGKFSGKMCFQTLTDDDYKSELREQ
The test is described as follows: ELISA on coated receptor.

Test [2] has as its target T4, recombinant human EphB4-Fc fusion protein (human, UniProt P54760 16-539).
T4 construct: extracellular domain; also called hEphB4; hu EphB4-Fc
T4 sequence (looked up): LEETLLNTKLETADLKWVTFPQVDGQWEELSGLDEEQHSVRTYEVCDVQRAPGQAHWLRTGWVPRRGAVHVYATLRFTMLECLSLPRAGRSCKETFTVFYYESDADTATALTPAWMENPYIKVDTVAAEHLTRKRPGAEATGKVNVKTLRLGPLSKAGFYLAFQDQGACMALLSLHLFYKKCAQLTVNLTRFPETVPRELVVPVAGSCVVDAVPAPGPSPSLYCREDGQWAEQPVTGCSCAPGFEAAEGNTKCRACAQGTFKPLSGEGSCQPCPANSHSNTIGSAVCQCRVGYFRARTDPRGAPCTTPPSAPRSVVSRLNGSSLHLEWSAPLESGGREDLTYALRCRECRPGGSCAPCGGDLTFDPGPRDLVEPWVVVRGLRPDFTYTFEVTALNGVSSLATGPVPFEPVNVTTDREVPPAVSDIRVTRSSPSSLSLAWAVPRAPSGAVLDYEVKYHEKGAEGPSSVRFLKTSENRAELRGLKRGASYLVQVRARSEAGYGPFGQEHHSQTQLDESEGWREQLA
Briefly: competition ELISA, Fab against EphrinB2-Fc on immobilized human EphB4. The protocol: IC₅₀ values were determined using recombinant antigen (murine and human EphB4) in an ELISA and on transfected cells in a FACS analysis (human EphB4 receptor).
Binding of (a fixed concentration of) the ligand EphrinB2-Fc to immobilized EphB4 receptor on an ELISA plate or on transfected cells is titrated with anti-EphB4 Fab. The IC₅₀ is determined as the amount of Fab at which the binding of EphrinB2 is inhibited by 50%.

The target of test [3] is T4, recombinant human EphB4-Fc fusion …. The test is described as follows: SET (MSD), solution equilibrium titration. The protocol: Two independent measurements were performed on human and murine EphB4-Fc.

The values below come from patent publication US20090137002A1 (published 2009).

Bounds are passed on as bounds.

B1: MOR03639 Fab (Fab, V domains shown)
VH: QVQLVESGGGLVQPGGSLRLSCAASGFTFSNYYLHWVRQAPGKGLEWVSGISYSGSSTYYADSVKGRFTISRDNSKNTLYLQMNSLRAEDTAVYYCARFYQRRQIPHGYDVWGQGTLVTVSS
VL: DIELTQPPSVSVAPGQTARISCSGDNIGDYYVHWYQQKPGQAPVLVIYRDSNRPSGIPERFSGSNSGNTATLTISGTQAEDEADYYCGSYDMPFGGTVFGGGTKLTVLG
notes: Monomeric HuCAL Fab (VH3, lambda3), purified, MH-tagged
In general, IC50 refers to the concentration that inhibits the measured activity by half. Regarding B1, the binding result (in test [1]; with recombinant mouse EphB6; with rat EphB1) was “no binding (tested: 20 µg/mL)” throughout. The IC50 in test [2] was found to be 65 µg/mL.

B2: MOR03640 Fab (Fab, V domains shown)
VH: QVQLVESGGGLVQPGGSLRLSCAASGFTFNNSWMSWVRQAPGKGLEWVSNITSSSSMTHYADSVKGRFTISRDNSKNTLYLQMNSLRAEDTAVYYCARKGMSFYNNKYAKSMFDLWGQGTLVTVSS
VL: DIELTQPPSVSVAPGQTARISCSGDNLGKKYVHWYQQKPGQAPVLVIYYDSKRPSGIPERFSGSNSGNTATLTISGTQAEDEADYYCSAWTTTMMHIVFGGGTKLTVLG
notes: Monomeric HuCAL Fab, purified, MH-tagged
One may read the Kd as the free concentration of one partner at which half of the binding sites on the other are occupied at equilibrium, for simple one-to-one binding. Take B2: the binding result (in test [1]; with recombinant mouse EphB6) was “no binding (tested: 20 µg/mL)” each time. Moreover, the dissociation constant (Kd) in test [3] came out at 1.05 nM. For the same molecule, the 50% inhibitory concentration (IC50) in test [2] was 33 µg/mL.

B3: MOR03641 Fab (Fab, V domains shown)
VH: QVQLVQSGAEVKKPGSSVKVSCKASGGTFSTYAISWVRQAPGQGLEWMGRIIPIFGTANYAQKFQGRVTITADESTSTAYMELSSLRSEDTAVYYCARSSYTILTTYYNYNAMDNWGQGTLVTVSS
VL: DIQMTQSPSSLSASVGDRVTITCRASQNINNFLNWYQQKPGKAPKLLIYGSSILQSGVPSRFSGSGSGTDFTLTISSLQPEDFAVYYCHQVSDTSDTFGQGTKVEIKR
notes: Monomeric HuCAL Fab (VH1A, kappa1), purified, MH-tagged; also called 3541 [sic]
On to B3, for which the binding result (in test [1]; with recombinant mouse EphB6; with rat EphB1) was “no binding (tested: 20 µg/mL)” each time. The Kd in test [3] was over 5 nM. Also, in test [2], the IC50 came to 5 µg/mL.
